These results are taken from publication PMC9958104, “Arabidopsis histone H3 lysine 9 methyltransferases KYP/SUVH5/6 are involved in leaf development by interacting with AS1-AS2 to repress KNAT1 and KNAT2” (Communications Biology, 2023).

Sequences and labels used below:
B2: maltose-binding protein (MBP) fused AS1 (MBP-AS1) (natural protein, Arabidopsis thaliana, UniProt O80931 1-367, looked up)
chain: MKERQRWSGEEDALLRAYVRQFGPREWHLVSERMNKPLNRDAKSCLERWKNYLKPGIKKGSLTEEEQRLVIRLQEKHGNKWKKIAAEVPGRTAKRLGKWWEVFKEKQQREEKESNKRVEPIDESKYDRILESFAEKLVKERSNVVPAAAAAATVVMANSNGGFLHSEQQVQPPNPVIPPWLATSNNGNNVVARPPSVTLTLSPSTVAAAAPQPPIPWLQQQQPERAENGPGGLVLGSMMPSCSGSSESVFLSELVECCRELEEGHRAWADHKKEAAWRLRRLELQLESEKTCRQREKMEEIEAKMKALREEQKNAMEKIEGEYREQLVGLRRDAEAKDQKLADQWTSRHIRLTKFLEQQMGCRLDRP
notes: source: E. coli BL21(DE3), recombinant protein

The target of assay [1] is B2. In words: quartz crystal microbalance (QCM); AffinixQN QCM biosensor; first protein immobilised on the Au electrode until saturation (AS1 for the AS1-KYP pair), second protein injected repeatedly; 50 mM Tris-HCl, 150 mM NaCl, 1 mM DTT, 25 °C; Langmuir equation; three replicates. The following applies: both partners purified.
The target in assay [2] is T1, MBP-KYP recombinant protein (Arabidopsis thaliana, UniProt Q8GZB6 1-624).
T1 construct: KRYPTONITE (KYP/SUVH4), Arabidopsis thaliana; KYP CDS cloned into the pMAL-c5v vector; The purification is not described; source: E. coli BL21(DE3), recombinant protein
T1 sequence (looked up): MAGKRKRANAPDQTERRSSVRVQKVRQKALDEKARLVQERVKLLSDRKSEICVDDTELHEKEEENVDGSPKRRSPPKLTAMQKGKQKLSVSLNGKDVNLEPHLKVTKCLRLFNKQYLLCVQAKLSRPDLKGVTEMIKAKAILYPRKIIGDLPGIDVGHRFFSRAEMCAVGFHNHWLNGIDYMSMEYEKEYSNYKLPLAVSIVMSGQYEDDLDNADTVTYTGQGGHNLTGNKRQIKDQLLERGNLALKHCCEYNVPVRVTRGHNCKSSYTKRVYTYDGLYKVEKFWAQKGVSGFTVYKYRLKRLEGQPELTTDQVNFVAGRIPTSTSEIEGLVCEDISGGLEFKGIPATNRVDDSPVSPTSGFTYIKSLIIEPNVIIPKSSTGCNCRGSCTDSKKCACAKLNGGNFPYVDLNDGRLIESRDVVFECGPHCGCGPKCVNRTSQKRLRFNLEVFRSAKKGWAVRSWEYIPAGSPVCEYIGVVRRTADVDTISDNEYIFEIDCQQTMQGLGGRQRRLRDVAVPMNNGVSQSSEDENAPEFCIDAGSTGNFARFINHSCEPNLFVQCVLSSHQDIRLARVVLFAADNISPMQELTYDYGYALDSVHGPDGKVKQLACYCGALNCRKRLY
Described as above. The following applies: both partners purified.

B1: maltose-binding protein (MBP) fused AS2 (MBP-AS2) (natural protein, Arabidopsis thaliana, UniProt O04479 1-199, looked up)
chain: MASSSTNSPCAACKFLRRKCQPECVFAPYFPPDQPQKFANVHKVFGASNVTKLLNELHPSQREDAVNSLAYEADMRLRDPVYGCVGVISLLQHQLRQLQIDLSCAKSELSKYQSLGILAATHQSLGINLLAGAADGTATAVRDHYHHHQFFPREQMFGGLDVPAGNNYDGGILAIGQITQFQQPRAAAGDDGRRTVDPS
notes: as for B2
For the molecule B1, the values for the Kd in assay [1] and in assay [2] were 25.3 µM and 18.6 µM, respectively.

Turning to B2, the Kd in assay [2] was 33.6 µM.
